Patent publication US20030068675, “Position dependent recognition of GNN nucleotide triplets by zinc fingers” (published 2003)

How the values were obtained:
Assay in all cases: EMSA
Details in all cases: tags: MBP fusion
ZFP SBS#1223 = biological target: T1, ZFP SBS#1223 (synthetic)
T1 chain: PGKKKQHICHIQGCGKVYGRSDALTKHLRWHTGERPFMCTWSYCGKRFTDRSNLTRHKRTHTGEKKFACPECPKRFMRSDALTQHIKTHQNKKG
Outline: (§1)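 Purified ZFP was titrated against labeled double-stranded target (1 nM or lower, at least 10-fold below expected Kd) carrying the natural binding site with flanks. Binding buffer was 10 mM Tris pH 7.5, 100 mM KCl, 1 mM MgCl2, 0.1 mM ZnCl2, 5 mM DTT, 10% glycerol, 0.02% BSA, with equilibration for at least 45 min. Bound and free target were separated on a 10% polyacrylamide gel.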

ZFP SBS#1141 = biological target: T2, ZFP SBS#1141 (synthetic)
T2 chain: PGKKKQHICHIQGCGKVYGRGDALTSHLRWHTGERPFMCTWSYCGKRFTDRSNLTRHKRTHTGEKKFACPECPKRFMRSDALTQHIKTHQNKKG
Outline: as §1

ZFP SBS#1224 = biological target: T3, ZFP SBS#1224 (synthetic)
T3 chain: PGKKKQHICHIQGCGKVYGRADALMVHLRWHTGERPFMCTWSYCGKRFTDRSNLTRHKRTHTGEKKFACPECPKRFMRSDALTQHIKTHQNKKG
Outline: as §1

ZFP SBS#1229 = biological target: T4, ZFP SBS#1229 (synthetic)
T4 chain: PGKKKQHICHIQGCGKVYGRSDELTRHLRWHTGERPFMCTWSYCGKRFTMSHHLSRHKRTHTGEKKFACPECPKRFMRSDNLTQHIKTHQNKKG
Outline: as §1

ZFP SBS#1140 = ZFP SBS#1140 (synthetic)
ZFP SBS#1140 (synthetic), sequence (chain, as listed by the source): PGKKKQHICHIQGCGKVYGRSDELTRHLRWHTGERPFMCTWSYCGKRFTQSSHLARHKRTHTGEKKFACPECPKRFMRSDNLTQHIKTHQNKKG
Outline: as §1

ZFP SBS#1219 = ZFP SBS#1219 (synthetic)
ZFP SBS#1219 (synthetic), sequence (chain, as listed by the source): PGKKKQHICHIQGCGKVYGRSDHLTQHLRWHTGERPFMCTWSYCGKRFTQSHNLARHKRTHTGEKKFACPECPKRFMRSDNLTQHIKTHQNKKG
Outline: as §1

ZFP SBS#1221 = ZFP SBS#1221 (synthetic)
ZFP SBS#1221 (synthetic), sequence (chain, as listed by the source): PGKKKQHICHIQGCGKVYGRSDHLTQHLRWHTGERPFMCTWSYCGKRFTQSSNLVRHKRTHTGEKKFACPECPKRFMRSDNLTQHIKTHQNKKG
Outline: as §1

ZFP SBS#1220 = ZFP SBS#1220 (synthetic)
ZFP SBS#1220 (synthetic), sequence (chain, as listed by the source): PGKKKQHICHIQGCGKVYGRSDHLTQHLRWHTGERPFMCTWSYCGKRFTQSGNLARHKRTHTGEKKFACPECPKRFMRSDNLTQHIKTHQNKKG
Outline: as §1

ZFP SBS#1230 = ZFP SBS#1230 (synthetic)
ZFP SBS#1230 (synthetic), sequence (chain, as listed by the source): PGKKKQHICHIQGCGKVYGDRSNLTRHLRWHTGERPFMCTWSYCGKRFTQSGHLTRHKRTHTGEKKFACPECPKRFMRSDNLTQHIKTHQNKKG
Outline: as §1

ZFP SBS#1231 = biological target: T5, ZFP SBS#1231 (synthetic)
T5 chain: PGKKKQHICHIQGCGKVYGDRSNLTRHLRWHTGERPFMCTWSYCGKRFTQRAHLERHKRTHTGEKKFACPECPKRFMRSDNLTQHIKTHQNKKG
Outline: as §1

ZFP SBS#1233 = biological target: T6, ZFP SBS#1233 (synthetic)
T6 chain: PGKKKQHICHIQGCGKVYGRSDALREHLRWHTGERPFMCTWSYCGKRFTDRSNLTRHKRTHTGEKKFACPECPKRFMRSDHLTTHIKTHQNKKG
Outline: as §1

ZFP SBS#1232 = biological target: T7, ZFP SBS#1232 (synthetic)
T7 chain: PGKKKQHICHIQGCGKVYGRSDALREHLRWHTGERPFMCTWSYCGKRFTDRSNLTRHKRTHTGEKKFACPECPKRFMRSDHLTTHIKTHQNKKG
Outline: as §1

ZFP SBS#1238 = biological target: T8, ZFP SBS#1238 (synthetic)
T8 chain: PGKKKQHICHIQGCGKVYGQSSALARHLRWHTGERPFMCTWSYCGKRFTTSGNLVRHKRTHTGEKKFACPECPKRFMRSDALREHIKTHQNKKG
Outline: as §1

ZFP SBS#937 = ZFP SBS#937 (synthetic)
ZFP SBS#937 (synthetic), sequence (chain, as listed by the source): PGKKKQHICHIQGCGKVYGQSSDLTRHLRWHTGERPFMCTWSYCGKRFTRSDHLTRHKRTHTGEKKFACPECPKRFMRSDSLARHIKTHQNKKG
Outline: as §1

ZFP SBS#938 = ZFP SBS#938 (synthetic, UniProt P08047)
ZFP SBS#938, sequence (P08047 other isoform, or with tags, fused parts or gaps): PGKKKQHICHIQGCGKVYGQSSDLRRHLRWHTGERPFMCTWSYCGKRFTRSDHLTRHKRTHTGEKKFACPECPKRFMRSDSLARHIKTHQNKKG
Outline: as §1

ZFP SBS#1215 = ZFP SBS#1215 (synthetic, UniProt P08047)
ZFP SBS#1215, sequence (P08047 other isoform, or with tags, fused parts or gaps): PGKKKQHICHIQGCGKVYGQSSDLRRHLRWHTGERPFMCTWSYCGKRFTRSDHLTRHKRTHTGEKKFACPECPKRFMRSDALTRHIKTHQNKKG
Outline: as §1

ZFP SBS#488 = biological target: T9, ZFP SBS#488 (synthetic)
T9 chain: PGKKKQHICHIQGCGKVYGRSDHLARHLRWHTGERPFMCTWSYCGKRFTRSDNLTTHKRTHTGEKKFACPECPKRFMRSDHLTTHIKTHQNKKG
Outline: as §1

ZFP SBS#1227 = ZFP SBS#1227 (synthetic)
ZFP SBS#1227 (synthetic), sequence (chain, as listed by the source): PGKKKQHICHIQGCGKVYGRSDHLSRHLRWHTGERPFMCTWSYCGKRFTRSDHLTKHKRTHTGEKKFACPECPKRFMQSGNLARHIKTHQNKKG
Outline: as §1

ZFP SBS#1218 = ZFP SBS#1218 (synthetic)
ZFP SBS#1218 (synthetic), sequence (chain, as listed by the source): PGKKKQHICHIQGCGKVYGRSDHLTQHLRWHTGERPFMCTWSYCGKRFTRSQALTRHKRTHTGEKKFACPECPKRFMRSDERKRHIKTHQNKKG
Outline: as §1

ZFP SBS#1213 = biological target: T10, ZFP SBS#1213 (synthetic)
T10 chain: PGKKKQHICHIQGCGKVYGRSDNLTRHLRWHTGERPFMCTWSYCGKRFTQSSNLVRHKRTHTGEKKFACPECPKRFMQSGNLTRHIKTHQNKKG
Outline: as §1

ZFP SBS#1127 = biological target: T11, ZFP SBS#1127 (synthetic)
T11 chain: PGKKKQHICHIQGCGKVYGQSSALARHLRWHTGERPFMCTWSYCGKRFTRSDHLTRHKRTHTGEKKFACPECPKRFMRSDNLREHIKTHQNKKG
Outline: as §1

ZFP SBS#1212 = biological target: T12, ZFP SBS#1212 (synthetic, UniProt P08047)
T12 chain: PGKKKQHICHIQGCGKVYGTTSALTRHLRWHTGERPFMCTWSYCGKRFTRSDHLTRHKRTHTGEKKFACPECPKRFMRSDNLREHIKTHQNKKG
Outline: as §1

ZFP SBS#1240 = biological target: T13, ZFP SBS#1240 (synthetic, UniProt P08047)
T13 chain: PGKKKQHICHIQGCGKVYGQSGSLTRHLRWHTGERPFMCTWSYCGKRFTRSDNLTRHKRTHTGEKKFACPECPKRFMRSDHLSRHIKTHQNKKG
Outline: as §1

ZFP SBS#1139 = biological target: T14, ZFP SBS#1139 (synthetic)
T14 chain: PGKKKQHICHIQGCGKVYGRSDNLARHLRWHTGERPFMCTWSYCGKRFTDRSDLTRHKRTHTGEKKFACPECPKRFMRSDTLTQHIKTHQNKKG
Outline: as §1

ZFP SBS#1228 = biological target: T15, ZFP SBS#1228 (synthetic)
T15 chain: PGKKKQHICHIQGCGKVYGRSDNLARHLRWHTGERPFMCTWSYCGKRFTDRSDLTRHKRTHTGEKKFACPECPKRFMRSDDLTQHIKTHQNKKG
Outline: as §1

ZFP SBS#1222 = biological target: T16, ZFP SBS#1222 (synthetic, UniProt P08047)
T16 chain: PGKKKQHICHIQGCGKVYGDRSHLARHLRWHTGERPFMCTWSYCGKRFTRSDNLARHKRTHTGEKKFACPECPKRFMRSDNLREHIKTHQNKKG
Outline: as §1

ZFP SBS#1101 = biological target: T17, ZFP SBS#1101 (synthetic)
T17 chain: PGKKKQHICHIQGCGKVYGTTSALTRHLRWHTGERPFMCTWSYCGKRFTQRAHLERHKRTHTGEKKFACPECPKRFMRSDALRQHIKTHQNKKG
Outline: as §1

ZFP SBS#1214 = biological target: T18, ZFP SBS#1214 (synthetic)
T18 chain: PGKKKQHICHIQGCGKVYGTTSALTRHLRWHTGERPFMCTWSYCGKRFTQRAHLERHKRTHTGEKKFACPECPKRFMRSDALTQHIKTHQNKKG
Outline: as §1

ZFP SBS#487 = biological target: T19, ZFP SBS#487 (synthetic)
T19 chain: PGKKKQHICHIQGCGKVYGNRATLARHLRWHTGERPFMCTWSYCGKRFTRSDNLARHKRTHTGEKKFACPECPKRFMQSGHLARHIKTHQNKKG
Outline: as §1

ZFP SBS#485 = ZFP SBS#485 (synthetic)
ZFP SBS#485 (synthetic), sequence (chain, as listed by the source): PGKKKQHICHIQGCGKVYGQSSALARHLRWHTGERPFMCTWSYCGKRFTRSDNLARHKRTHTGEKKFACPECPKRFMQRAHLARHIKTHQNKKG
Outline: as §1

ZFP SBS#1242 = biological target: T20, ZFP SBS#1242 (synthetic)
T20 chain: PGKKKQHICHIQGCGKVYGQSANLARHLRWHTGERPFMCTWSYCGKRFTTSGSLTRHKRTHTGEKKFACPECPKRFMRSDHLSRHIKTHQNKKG
Outline: as §1

ZFP SBS#1243 = biological target: T21, ZFP SBS#1243 (synthetic)
T21 chain: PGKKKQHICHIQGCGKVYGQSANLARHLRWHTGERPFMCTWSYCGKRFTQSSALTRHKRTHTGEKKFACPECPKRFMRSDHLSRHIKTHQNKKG
Outline: as §1

ZFP SBS#1217 = ZFP SBS#1217 (synthetic)
ZFP SBS#1217 (synthetic), sequence (chain, as listed by the source): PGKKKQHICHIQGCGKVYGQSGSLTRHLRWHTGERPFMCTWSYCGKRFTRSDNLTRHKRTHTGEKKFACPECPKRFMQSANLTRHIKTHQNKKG
Outline: as §1

ZFP SBS#1150 = ZFP SBS#1150 (synthetic)
ZFP SBS#1150 (synthetic), sequence (chain, as listed by the source): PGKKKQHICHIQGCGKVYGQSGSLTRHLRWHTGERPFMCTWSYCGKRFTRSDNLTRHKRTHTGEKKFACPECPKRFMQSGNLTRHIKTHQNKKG
Outline: as §1

ZFP SBS#498 = ZFP SBS#498 (synthetic, UniProt P08047)
ZFP SBS#498, sequence (P08047 other isoform, or with tags, fused parts or gaps): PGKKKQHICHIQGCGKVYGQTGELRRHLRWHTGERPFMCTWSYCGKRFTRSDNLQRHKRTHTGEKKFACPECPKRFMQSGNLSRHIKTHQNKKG
Outline: as §1

ZFP SBS#1244 = ZFP SBS#1244 (synthetic)
Outline: as §1

ZFP SBS#1245 = biological target: T22, ZFP SBS#1245 (synthetic)
T22 chain: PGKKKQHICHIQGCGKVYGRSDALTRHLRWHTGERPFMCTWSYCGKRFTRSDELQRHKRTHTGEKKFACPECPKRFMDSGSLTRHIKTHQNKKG
Outline: as §1

B1: ATGGACTTG (dsDNA)
DNA 1: ATGGACTTG
DNA 2: CAAGTCCAT
Kd (ZFP SBS#1223): 7 nM | Kd (ZFP SBS#1141): 1.7 nM | Kd (ZFP SBS#1224): 12 nM

B2: AAGGGTGCG (dsDNA)
DNA 1: AAGGGTGCG
DNA 2: CGCACCCTT
Kd (ZFP SBS#1229): 8.2 nM | Kd (ZFP SBS#1140): 0.3 nM

B3: AAGGAAAGG (dsDNA)
DNA 1: AAGGAAAGG
DNA 2: CCTTTCCTT
Kd (ZFP SBS#1219): 0.68 nM | Kd (ZFP SBS#1221): 1.4 nM | Kd (ZFP SBS#1220): 0.175 nM

B4: AAGGGAGAC (dsDNA)
DNA 1: AAGGGAGAC
DNA 2: GTCTCCCTT
Kd (ZFP SBS#1230): 0.383 nM | Kd (ZFP SBS#1231): 0.213 nM

B5: TGGGACCTG (dsDNA)
DNA 1: TGGGACCTG
DNA 2: CAGGTCCCA
Kd (ZFP SBS#1233): 0.635 nM | Kd (ZFP SBS#1232): 0.113 nM

B6: CTGGATGTT (dsDNA)
DNA 1: CTGGATGTT
DNA 2: AACATCCAG
Kd (ZFP SBS#1238): 0.313 nM

B7: GTGGGGGCT (dsDNA)
DNA 1: GTGGGGGCT
DNA 2: AGCCCCCAC
Kd (ZFP SBS#937): 0.03 nM | Kd (ZFP SBS#938): 0.049 nM | Kd (ZFP SBS#1215): 0.003 nM

B8: TGGTAGGGGG (dsDNA)
DNA 1: TGGTAGGGGG
DNA 2: CCCCCTACCA
Kd (ZFP SBS#488): 35 nM

B9: GAATAGGGG (dsDNA)
DNA 1: GAATAGGGG
DNA 2: CCCCTATTC
Kd (ZFP SBS#1227): 25 nM

B10: GCGGTGAGG (dsDNA)
DNA 1: GCGGTGAGG
DNA 2: CCTCACCGC
Kd (ZFP SBS#1218): 0.46 nM

B11: GAAGAAGAG (dsDNA)
DNA 1: GAAGAAGAG
DNA 2: CTCTTCTTC
Kd (ZFP SBS#1213): 12.3 nM

B12: CAGGGGGTT (dsDNA)
DNA 1: CAGGGGGTT
DNA 2: AACCCCCTG
Kd (ZFP SBS#1127): 0.1 nM | Kd (ZFP SBS#1212): 0.05 nM

B13: GGGGAGGCA (dsDNA)
DNA 1: GGGGAGGCA
DNA 2: TGCCTCCCC
Kd (ZFP SBS#1240): 0.056 nM

B14: ACGGCCGAG (dsDNA)
DNA 1: ACGGCCGAG
DNA 2: CTCGGCCGT
Kd (ZFP SBS#1139): 0.535 nM | Kd (ZFP SBS#1228): 12 nM

B15: CAGGAGGGC (dsDNA)
DNA 1: CAGGAGGGC
DNA 2: GCCCTCCTG
Kd (ZFP SBS#1222): 0.155 nM

B16: ATGGGAGTT (dsDNA)
DNA 1: ATGGGAGTT
DNA 2: AACTCCCAT
Kd (ZFP SBS#1101): 0.065 nM | Kd (ZFP SBS#1214): 0.46 nM

B17: GGAGAGGTTT (dsDNA)
DNA 1: GGAGAGGTTT
DNA 2: AAACCTCTCC
Kd (ZFP SBS#487): 76.9 nM | Kd (ZFP SBS#485): 110 nM

B18: GGGGTTGAA (dsDNA)
DNA 1: GGGGTTGAA
DNA 2: TTCAACCCC
Kd (ZFP SBS#1242): 0.02 nM | Kd (ZFP SBS#1243): 0.101 nM

B19: GAAGAGGCA (dsDNA)
DNA 1: GAAGAGGCA
DNA 2: TGCCTCTTC
Kd (ZFP SBS#1217): 0.004 nM | Kd (ZFP SBS#1150): 0.004 nM | Kd (ZFP SBS#498): 30 nM

B20: GTCGCGGTG (dsDNA)
DNA 1: GTCGCGGTG
DNA 2: CACCGCGAC
Kd (ZFP SBS#1244): 0.044 nM | Kd (ZFP SBS#1245): 0.102 nM
